{"source": "paper PMC11506057", "about": "“Identification of Podoplanin Aptamers by SELEX for Protein Detection and Inhibition of Platelet Aggregation Stimulated by C-Type Lectin-like Receptor 2”", "binders": {"B1": {"name": "A77 (structured_DNA)", "DNA": "ATCCAGAGTGACGCAGCATGGGGGGAGAGTGTGGTCTGGCTTGGTGGGGTCTGGGGGCTGGACACGGTGGCTTAGT"}, "B2": {"name": "A289 (structured_DNA)", "DNA": "ATCCAGAGTGACGCAGCACGGGTTTGGCGCCGGGCCTGGCGGGTGTAGCGTTTTTGGGTGGACACGGTGGCTTAGT"}, "B3": {"name": "A6 (structured_DNA)", "DNA": "ATCCAGAGTGACGCAGCACACCGAGGGGACTGCTCGGGATTGCGGATGAGGTAGCAAGTGGACACGGTGGCTTAGT"}, "B4": {"name": "A1498 (structured_DNA)", "DNA": "ATCCAGAGTGACGCAGCATGCAGGGTTTGGCTTCGGGCCTGGCGGAGAGAGCGTGAGGTGGACACGGTGGCTTAGT"}, "B5": {"name": "A1 (structured_DNA)", "DNA": "ATCCAGAGTGACGCAGCATCACTAGTGCGCCAGGGGGACTGCTCGGGATTGCGGATACTGGACACGGTGGCTTAGT"}, "B6": {"name": "A5 (structured_DNA)", "DNA": "ATCCAGAGTGACGCAGCATGCCAAAGGGTCTGCTCGGGATTGCGGAGAGGGCTTGGGGTGGACACGGTGGCTTAGT"}}, "biological_target": "T1, podoplanin (PDPN), recombinant PDPN-His-Fc (UniProt Q86YL7 23-131)", "T1 sequence": "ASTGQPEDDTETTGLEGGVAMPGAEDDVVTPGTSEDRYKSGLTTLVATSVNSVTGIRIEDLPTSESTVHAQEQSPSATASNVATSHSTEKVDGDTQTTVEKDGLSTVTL", "assay": "BLI; BLI and dot blot: binding buffer B, 1x PBS, 5 mM MgCl2, 0.1% BSA, 0.01% yeast tRNA (BLI baseline in buffer A: 1x PBS, 5 mM MgCl2, 2 mM CaCl2, 1 mg/mL BSA, 0.1 mg/mL salmon sperm DNA); temperature and pH not given; flow cytometry at 4 C", "settings": "protein: commercial, tags: His", "key": {"[1]": {"settings": "chain copies: 2, label: biotin, parallel G-quadruplex (CD), stem-loop predicted"}, "[2]": {"settings": "chain copies: 2, label: biotin, antiparallel G-quadruplex or B-DNA (CD)"}}}
{"binder": "B1", "values": [{"measurement": "Kd", "setting": "[1]", "result": 1.7, "unit": "nM"}]}
{"binder": "B2", "values": [{"measurement": "Kd", "setting": "[2]", "result": 0.5, "unit": "nM"}]}
{"binder": "B3", "values": [{"measurement": "Kd", "setting": "[1]", "result": 0.2, "unit": "nM"}]}
{"binder": "B4", "values": [{"measurement": "Kd", "setting": "[2]", "result": 0.4, "unit": "nM"}]}
{"binder": "B5", "values": [{"measurement": "Kd", "setting": "chain copies: 2, label: biotin (BLI, dot blot, Western blot), FAM (flow cytometry), parallel G-quadruplex (CD), stem-loop predicted", "result": 1.3, "unit": "nM"}]}
{"binder": "B6", "values": [{"measurement": "Kd", "setting": "[1]", "result": 0.2, "unit": "nM"}]}
